Patent US6355610B2 (priority 1998, dated 2002)
pIC50: −log10 of the molar value. Entries after “also recorded” stand apart in the source; their conditions may differ. Ends that are not written are not given here.

Columns and labels:
35S-HaPrPsen = 35S-HaPrPsen (Mesocricetus auratus, UniProt P04273); format: biochemical, hamster
[1] = target: hamster PrP conversion reaction (PrPsen to PrPres) (Mesocricetus auratus, UniProt P04273); assay: biochemical; design: species or system Syrian golden hamster

Substance: Aβ1-40
- peptide induced aggregation of 35S-HaPrPsen (35S-HaPrPsen): caused aggregation and pelleting of 35S-HaPrPsen
- inhibition of the conversion reaction (in words) [1]: gave no inhibition of conversion; also recorded: unable to inhibit the PrPsen to PrPres conversion at all concentrations tested

Substance: GAVVGGLGGYMLGSAMSR [P119-130]
- pIC50 [1]: > 4.00
